In publication PMC10531801 one finds Kd data, which are given here for 1 sequence.

This series relates to Gp49 (Bacillus phage SPO1). As to the kind of experiment: SPR. The settings on record: EMSA: 20 mM Tris, 50 mM NaCl, pH 7.5, 30 min at 4 C, 2% agarose in 0.5x TBE; SPR: Biacore T100, CM5, 25 C, buffer not stated. (Mobility shift assays separate free from complexed probe on a gel.)

AUGAAUAGUUAAACAACGUGG [ssRNA]: the Kd – broadly, the concentration at which binding is half-saturated – turned out to be 1.86 µM.
